Reference: IntAct's records for PubMed 23435566

B1: Rab-3A-interacting protein (Rattus norvegicus (Rat)), Q62739 (parent)
chain: MANDPLEGFHEVNLASPTSPDLLGVCDPGTQEQTTSPSVIYRPHPSTLCSATIQANALNLSDLPTQPVYSSPRHLNCAEISNISIHVPEPASSVASEVAAGLTRFTSRKDSCNAEREFLQGATVTEASAGNDDIFGLSTDSLSRLRSPSVLEVREKGYERLKEELAKAQRELKLKDEECERLSKVRDQLGQELEELTASLFEEAHKMVREANVKQATAEKQLKEAQGKIDVLQAEVAALKTLVLSSSPTSPTQEPLAAGKTPFKRGHTRNKSTSSAMSGSHQDFSAIQPIVKDCREADLSLYNEFRSWKDEPTMDRTCPFLDKIYQEDIFPCLTFAKSELASAVLEAVENNTLSIEPVGLQPIRFVKASAVECGGPKKCALTGQSKPCKHRIKLGDSSSYYYISPVCRYRITSVCNFFTYIRYIQQGLVKQQDVDQMFWEVMQLRKEMSLAKLGYFKEEL
B2: Rab-3A-interacting protein (Rattus norvegicus (Rat)), Q62739 (parent)
chain: B1 chain
partner: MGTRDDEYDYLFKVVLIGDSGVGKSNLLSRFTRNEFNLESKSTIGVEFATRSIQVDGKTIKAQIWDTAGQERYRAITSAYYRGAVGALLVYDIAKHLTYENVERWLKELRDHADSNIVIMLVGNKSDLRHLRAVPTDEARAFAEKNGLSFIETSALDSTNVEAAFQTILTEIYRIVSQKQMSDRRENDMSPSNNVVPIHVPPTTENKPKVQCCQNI

Variants of: B1
Conditions: with exoc6_mouse Exoc6, Q8R313
Sequence of exoc6_mouse Exoc6, Q8R313 (Q8R313 whole entry): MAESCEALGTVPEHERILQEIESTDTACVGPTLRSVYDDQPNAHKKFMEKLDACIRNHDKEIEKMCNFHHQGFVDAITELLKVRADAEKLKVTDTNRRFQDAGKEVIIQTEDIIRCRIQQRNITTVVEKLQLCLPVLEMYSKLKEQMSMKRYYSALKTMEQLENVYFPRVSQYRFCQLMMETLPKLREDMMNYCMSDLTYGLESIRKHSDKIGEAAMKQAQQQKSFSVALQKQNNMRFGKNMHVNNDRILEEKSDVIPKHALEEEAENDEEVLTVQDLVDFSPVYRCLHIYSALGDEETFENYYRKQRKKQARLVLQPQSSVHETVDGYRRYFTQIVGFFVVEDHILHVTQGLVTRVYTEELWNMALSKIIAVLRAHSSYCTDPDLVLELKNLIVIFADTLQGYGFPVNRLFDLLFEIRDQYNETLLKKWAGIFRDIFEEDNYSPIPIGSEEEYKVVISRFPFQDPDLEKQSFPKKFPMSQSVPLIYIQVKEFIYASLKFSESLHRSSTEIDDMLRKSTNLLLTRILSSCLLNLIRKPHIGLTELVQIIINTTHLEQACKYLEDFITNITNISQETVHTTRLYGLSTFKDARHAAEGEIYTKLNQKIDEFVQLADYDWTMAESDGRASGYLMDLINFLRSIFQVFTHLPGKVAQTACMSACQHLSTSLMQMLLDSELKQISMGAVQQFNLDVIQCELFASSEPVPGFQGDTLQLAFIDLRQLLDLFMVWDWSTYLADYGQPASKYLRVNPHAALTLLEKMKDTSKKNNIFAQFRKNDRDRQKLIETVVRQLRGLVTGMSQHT

Variant	effect of a mutation on the interaction
MANDPLEGFHEVNLASPTSPDLLGVCDPGTQEQTTSPSVIYRPHPSTLCSATIQANALNLSDLPTQPVYSSPRHLNCAEISNISIHVPEPASSVASEVAAGLTRFTSRKDSCNAEREFLQGATVTEASAGNDDIFGLSTDSLSRLRSPSVLEVREKGYERLKEELAKAQRELKLKDEECERLSKVRDQLGQELEELTASLFEEAHKMVREANVKQATAEKQLKEAQGKIDVLQAEVAALKTLVLSSSPTSPTQEPLAAGKTPFKRGHTRNKATSSAMSGSHQDFSAIQPIVKDCREADLSLYNEFRSWKDEPTMDRTCPFLDKIYQEDIFPCLTFAKSELASAVLEAVENNTLSIEPVGLQPIRFVKASAVECGGPKKCALTGQSKPCKHRIKLGDSSSYYYISPVCRYRITSVCNFFTYIRYIQQGLVKQQDVDQMFWEVMQLRKEMSLAKLGYFKEEL [S272A]	disrupting interaction

Variants of: B1
Conditions: with exoc6_mouse Exoc6, Q8R313
Remark: another data set of the same source

Variant	effect of a mutation on the interaction
MANDPLEGFHEVNLASPTSPDLLGVCDPGTQEQTTSPSVIYRPHPSTLCSATIQANALNLSDLPTQPVYSSPRHLNCAEISNISIHVPEPASSVASEVAAGLTRFTSRKDSCNAEREFLQGATVTEASAGNDDIFGLSTDSLSRLRSPSVLEVREKGYERLKEELAKAQRELKLKDEECERLSKVRDQLGQELEELTASLFEEAHKMVREANVKQATAEKQLKEAQGKIDVLQAEVAALKTLVLSSSPTSPTQEPLAAGKTPFKRGHTRNKSTSSAMSGSHQDFSAIQPIVKDCREADLSLYNEFRSWKDEPTMDRTCPFLDKIYQEDSFPCLTFAKSELASAVLEAVENNTLSIEPVGLQPIRFVKASAVECGGPKKCALTGQSKPCKHRIKLGDSSSYYYISPVCRYRITSVCNFFTYIRYIQQGLVKQQDVDQMFWEVMQLRKEMSLAKLGYFKEEL [I329S]	increasing interaction

Variants of: B2
Conditions: with rb11a_mouse Rab11a

Variant	effect of a mutation on the interaction
MANDPLEGFHEVNLASPTSPDLLGVCDPGTQEQTTSPSVIYRPHPSTLCSATIQANALNLSDLPTQPVYSSPRHLNCAEISNISIHVPEPASSVASEVAAGLTRFTSRKDSCNAEREFLQGATVTEASAGNDDIFGLSTDSLSRLRSPSVLEVREKGYERLKEELAKAQRELKLKDEECERLSKVRDQLGQELEELTASLFEEAHKMVREANVKQATAEKQLKEAQGKIDVLQAEVAALKTLVLSSSPTSPTQEPLAAGKTPFKRGHTRNKATSSAMSGSHQDFSAIQPIVKDCREADLSLYNEFRSWKDEPTMDRTCPFLDKIYQEDIFPCLTFAKSELASAVLEAVENNTLSIEPVGLQPIRFVKASAVECGGPKKCALTGQSKPCKHRIKLGDSSSYYYISPVCRYRITSVCNFFTYIRYIQQGLVKQQDVDQMFWEVMQLRKEMSLAKLGYFKEEL [S272A]	increasing interaction

Variants of: B2
Conditions: with rb11a_mouse Rab11a
Remark: another data set of the same source

Variant	effect of a mutation on the interaction
MANDPLEGFHEVNLASPTSPDLLGVCDPGTQEQTTSPSVIYRPHPSTLCSATIQANALNLSDLPTQPVYSSPRHLNCAEISNISIHVPEPASSVASEVAAGLTRFTSRKDSCNAEREFLQGATVTEASAGNDDIFGLSTDSLSRLRSPSVLEVREKGYERLKEELAKAQRELKLKDEECERLSKVRDQLGQELEELTASLFEEAHKMVREANVKQATAEKQLKEAQGKIDVLQAEVAALKTLVLSSSPTSPTQEPLAAGKTPFKRGHTRNKSTSSAMSGSHQDFSAIQPIVKDCREADLSLYNEFRSWKDEPTMDRTCPFLDKIYQEDSFPCLTFAKSELASAVLEAVENNTLSIEPVGLQPIRFVKASAVECGGPKKCALTGQSKPCKHRIKLGDSSSYYYISPVCRYRITSVCNFFTYIRYIQQGLVKQQDVDQMFWEVMQLRKEMSLAKLGYFKEEL [I329S]	disrupting interaction
